Results published in the nanobody polyreactivity screen of Harvey et al. (2022).

Assay: yeast display, Sf9 membrane polyspecificity reagent, FACS + sequencing; frameworks hold sequencing errors
Procedure, shortened: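 Using colony PCR, genes from sorted yeast display clones were amplified, then sequenced on MiSeq at 2 × 250 and filtered by CDR length. The clones had been stained with 10% biotinylated, detergent-solubilized Sf9 membrane reagent for 1 hour at 4 °C and sorted by FACS into low and high (top ~1%) gates on anti-HA and streptavidin fluorescence. Polyreactivity labels come from the gate of origin.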

Row | Sequence | polyreactivity (PSR sort gate)
1 | QVQIVESGGGLLQAGGSLRLSCAASGRIFPANAMGWYREAPGKERELGAAIDYDGGSTYYADSVKGRFTISRDNAKNTVYLQRNSLKPVDNGVFYCDKSLTFYSWRDYGYWGQGTQVTVSS | high polyreactivity
2 | QVQLVESGGGLVQAGGSLRLSCAASGFTFLVNAMGWYRQAPGKERELVAAISSGGSTYYADSVKGRFTISRDNAKNTVYLQMNSLKPEDTAVYYCAAPTDFLFWEFDYWGQCTQVTVSS | low polyreactivity
3 | QDQHVESGGGLVQAGGSLRLSCAASGSIFNYYAMGWYRQAPGKEREFVAAISRSGGSTYYADSEKGRFTISRDNAKNTVYLEMNSLKPEDTAVYYCNAYSYSEAGDDGDYWGQGTQVTVSS | low polyreactivity
4 | QVQLVESGGGLVQAGVRLRLSCPASGITFEGYAMGWYRKAPGKERELVAAIRSSGTSTYYADSVKGRFTISRDNAKNTVYLQMNSLKPEDTAVYYCNRARSSSRYDYWGQGTKVTVSS | low polyreactivity
5 | QVQLVESGGGLVQAGGSLRLSCAASGRTLSRNAMGWYRQAPGKEREFVAAISQRGGSTYYADSVKGRFTISRDNAKNTVYLQMNSLKPEDTAVYYCARRYNAQDYARFDYWGQGTQVTVSS | high polyreactivity
6 | QVQLVESGGGLVQAGGSLRVSCAASGFTFSYYVMGWYRQAPGKERELVAAITTSGSGTYYADSVKGRFTISRDNAKNTVYLQMNSLKPEDTAVYYCAARPYRGFVSRYGYWGQGTQVTVSS | low polyreactivity
7 | QVQLVESGGGLVQAGGSLRLSCAASGSTFYSNAMGWYRPAPGKERELVASITRGGSTNYADSVKGRFTISRDNAKNTVYLQMNSLKPEDTAVYYCNAERRYYFYRYDYWGQGTQVTVSS | high polyreactivity
8 | QVQLVESGGGLVQAGGSLRLSCAASGSTFYVYAMGSYRQAPGKERELVAAITRGGSTYYADSVKARFTISRDNAKNTVYLQMNSLKPEDTAVYYCAKYLTGAADLVPEYDYWGQGTQVTVSS | low polyreactivity
9 | QVQLVESGGGLVQAGGSLRLSCAASGSTFSDNAMGGYRQAPGKERELVAAINETGGSTYYADSVKGRFTISRDNAKNTVYLQMNSLKPEDTAVYYCNADIDPYGATYAIEYDYWGQGTQVTVSS | low polyreactivity
10 | QVQLVESGGGLVQAGGSLRLSCAASGLTFERYAMGSYIQAPGKERELVAAISGSGGSTYYADSVKGRFTISRDNAKNTVYLQMNSLKPEDTAVYYCAAYPTVWYDYWGQGTQVTVSS | high polyreactivity
11 | QVQLVESGGGLVQAGGSLRLSCAASGSIFGYYAMGWSRQAPGKERELVAAISASGGSTYYADSVKGRFTISRDNAKNTVYLQMNSLKPEDTAVYYCAKVDWEQGFWVEYDHYDYWGQGTQVTVSS | high polyreactivity
12 | QVQLVESGGGLVQAGGSLRLSCAASAYTFYAMGWYRQAPGKERELVAAITYRGARTYYADSVKRRFTISRDNEKNTVYLQMNSLKPEYTAVYYCNADYWGQGTQVTVSS | low polyreactivity
13 | QVQLVESGGGLVQAGGSLRLSCAASGRTFDDNAMGWYRQAPGKERELVASISSGTSTNYADSVKGRFTISRDNAKNTVYVQMNCLKPEDTAVYYCNAYGPIWYTAVLGVGRYYGWTDYWGQGTQVTVSS | low polyreactivity
14 | QVQLVESGGGLVQAGGSLRLSCAASGSIFAVYAMGRYRQAPGKERELVASISRTGTTNYADSVKGRFTISRDNAKNTVYLQMNSLKPEDTAVYYCNADAYLYYKYHWGFTFYQYEYWGQGTQVTVSS | low polyreactivity
15 | QVQLVESGGGLVQAGGSLRLSCAASGFTFRYYAMGWYRQAPGKERELVAAIRRGGTTNYADSVKGRFTISRDNAKNTVYLQMKSLKPEDTAVYYCNAGRGYSVWASIYNSRPFDYWGQGTQVTVSS | high polyreactivity
16 | QVQLEESGGGLVQAGGSLRLSCAASGRTSYGYAMGWYRQAPGKERELVAAISSGGRTNYADSVKGRFTISRDNAKNTVYLQMNSLKPEDTAVYYCAKRYRYRPSYDYWGQGTQVTVSS | high polyreactivity
17 | QVQLVESGGGLVQAGGSLRLSCAASGRTFPYNAMGWYRQAPGKERELVAAITSSGSSTYYADSVKGRFTISRDNAKNTVYLQMNSLKPEDTAVYYCAADSYLIVGSSLVWQGYYYWGQGTQVTVSS | low polyreactivity
18 | QVQLVESGGGLVQAGGSLLLSCAASGLIFDPYAMGWYRQAPGKERELVADISSGGSTNYADSVKGRFTISRDNAKNTVYLQMNSLKPEDTAVYYCNKTIILDGYYFSLTLYDSWGQGTQVTVSS | low polyreactivity
19 | QVQLVESGGGLVQAGCSLRISCADSGRTFDEYAMGWYRQAPGKERELVAAISGSAGSTYYADSVKGRFTISRDNAKNSVYLQMNSLKPEDTAVYYCNAEVYGELYYWGQGTQVTVSS | low polyreactivity
20 | QVQLVESGGGLVQAGGSLRLSCAASGSTFARYAMGWYRQAPGKERELVAAITWGGGGTYADSVKGRFTISRDNAKNTVSLQMNSLKPEDTAVYYCNAYGPLILFIGFRLDYWGQGTQVTVSS | low polyreactivity
21 | QVQLVESGGGLVQAGGSLRLSCAASGRTFYNYAMVWYRQAPGKERELVAAIDWGSDSTYYADSVKGRFTISRDNAKNTVYLQMNSLKPEDTAVYYCAAYLVSVYSRTYDYWGQGTQVTVSS | low polyreactivity
22 | QFQLVESGGGLVQAGGSLRLSCAASGITFVYYAMGGYRQAPGKERELVAAISRGGTSTYYADSVKGRFTISRDNAKNTVYLHMNSLKPEDTAVYYCNARYPKSYRTNYYYWGQGTQVTVSS | high polyreactivity

Row | Sequence | polyreactivity (PSR sort gate)
23 | QVQLVESGGGLVQAGGSLRLSCAASGSTFRYYAMAWYREAPGKERELVAAISRRGGSTYYADSVKGRFTISRDNAKNTVYLQMNSLIPEDTAVYYCNAAASTFTSWIRGPGVCYDYWGQGTQVTVSS | high polyreactivity
24 | QVQLVESGGGIVQAGGSLRLSCAASGSTFLYYAMGWYRQAPGKERELVAAISSGGSTYYADSVKGRFTISRDNAKNTVYLQMNSLKPEDTAVYYCAAVRPGYVAYYYWGQGTQVTVSS | high polyreactivity
25 | QVQLVESGGGLVQAGGSLRLSCAASGFTFVRYAMGWYRKAPGKERELVAAISGSGDRTYYADSVKGRFTISRDNAKNTVYLQMNSLKPEDTAVYYCAKKSLGARHTGRYNYWGQGTQVTVSS | high polyreactivity
26 | QVQLVESGGGLVQAGGSHRLSCAASGLTFVDNAMGWYRQAPGKDRELVAANSYNGGSTYYADSVKGRFTISRDNAKNTVYLQLHRLKPEDTAVYYCAADISVGRYGDMDDWGQGTQVTVSS | low polyreactivity
27 | QVQLVESGGGLVQAGGSLRLSCAASGSIFSGNVMGWYRQAPGKERELVAAISGRGGSTYYADSVKGRFTISRDNAKNTVYLQMNSLKPEDTAVYYCAAVYLKTYYWGQGTQVTVSS | high polyreactivity
28 | QVQLVESGGGLVQAGGSLRLSCAASGFTFVVYTMGWYRQAPGKEREFVAVISESGGSTYYADSVKGRFTISRDNAKNTVYLQMNSLKPEDTAVYYCAARTRYYRDNYWGQVTQVTVSS | high polyreactivity
29 | QVQLVESGGGLVQAGGSLRLSCAASGYIFGYYAMGWYRQAPGKERELVAAIRSGGNTYYADSVKGRFTISRDNAKNTVYLQMNSLKPEDTAVYYCAKRYGRFSDYWGQGTQVTVSS | high polyreactivity
30 | QVQLVESGGGLVQAGGSLRLSCAASGSIFDLYAMGWYRQAPGKERELVAGISYSGGSTYYADSVKGRFTISRDNAKNTVYLQMNSLKPEDTAVYYCAADDSYWYDNYIDEAAANTFDYWGQGTQVTVSS | low polyreactivity
31 | QVQLVESGGGLVQAGGSLRLSCAASGSTFTTNAMGWYRQAPGKERELVASITWSGGGTNYADSVKGRFTISRDNAKNSVFLQMNSLKPEDTAVYSCADDYDDSHLRSDYWGQGTQVTVSS | low polyreactivity
32 | QVQLVESGGGIVQAGGSLRLSCAASGSIFVHNDLGWYRQAPGKERELVARINTGGGTNYADSVKGRFTISRDNAKKTVYLQMNSLKPEDTAVYYCATDGDRDDHYFTDPEFDYWGQGTQVTVSS | low polyreactivity
33 | QVQLLESGGGLVQAGGSLRLSCAASGSTLLQYAMGWYRQAPGKEREFVAAISASGARTYYADSVKGRFTISRDNAKNTVYLQMNSLKPEETAVYYCAALTQRSSFDYWGQGTQVTVSS | high polyreactivity
34 | QVQLVESGGRLVQAGGSLRLSCAATGSTFYKNPMGRYRHAPRKEREVVAAISTSGGSTYYADSLKGRFTISRDNAKNTVYLHMNRLKPEDTAVNYCATRRRIPSSCYYDNDYWGQGTQVTVSS | high polyreactivity
35 | QVHLVESGGGLVQAGGSLRLSCDASGITFRRYGMGWYRQAPGKERELVATITSSVGSRTYYADSVKGRFTISRDNAKNTVYLQMNSLKPEDTAVYYCAADHRVYDYEYWGQVTQVTVSS | low polyreactivity
36 | QVQLVESGGGLVQAGGSLRLSCAASGSTLYQYTMGWYRQAPGKERELVAGISRRGGSTYYADSVKGRFTISRDNAKNTVYLQMNSLKPEDTAVYYCAKRPPYIAWYGYNGDYWGQGTQVTVSS | high polyreactivity
37 | QVQLVESGGGLVQAGGTLRLSCAASGSTFVYNAMGWYRQAPGKERDLVATITGGGSTYYADSVKGRFTISRDNAKNTVYLQMNSLKPEDTAVYYCSKRRDSYDVEYDYWGQGTQVTVSS | low polyreactivity
38 | QVQLVESGGGLVQAGGSLRLSCAASGRTFVDNAMGWYRHAPGKERELVAAISSGGTTNYADSVKGRFTISRDNAKNTVYLQMNSLKPEDTAVYYCNTVATYLRSGYGYWGQGTQVTVSS | low polyreactivity
39 | QVQLVESGGGLVQAGGSLRLSCAASGRTFGHYAMGWYRQAPGKERELVAAISCRGTSTYYADSVKGRFTISRDNAKNTVYLQMNSLKPEDTAVYYCAAVSVTSYRYDYWGQGTQVTVSS | high polyreactivity
40 | QLQLVESGGGLVQAGGSLRLSCAASGRTFDSYAMGWYRQPPGKERELVAAIYADSVKGRFTISRDIAKNTVYLQMYSLTPEDSAVYYCAAETYSGQTYLGEYDYWGQGTQVTVSS | low polyreactivity
41 | QVQLVDSGGGLVQAGGSLSLSCAASGRIFPYNAMGWYRQAPGKERELVAGISRTGGSTYYADSVKGRFTISRDNAKNTVYLQKNCLKTEDTAAYYCGARPGAHPDRLDYWGQGTQVTVSS | low polyreactivity
42 | QVQLVESGGGLVQAGGSLRLICAASGSTFERYAMGWYRQAPGKERELVAAIDSRSGSTSYADSVKGRFTISRDNAKNTVYLQMNSLKPEDTAVYYCAKDYYRPWYDRPLGYDYWGQGTQVTVSS | low polyreactivity
43 | QVQLQESGGGLVQAGGSLRLSCAASGSIFVSVTMGWYRQAPGKERELVASIGRGSTTNHADSVKGRFTICRDNAKNIVYLLMNSLKPEDTAVYYCAALESYGKYHGYWGQGTQVTVSS | low polyreactivity
